Experimental data reported in PMC7255924 (The FEBS journal, 2019).

Target: T1, C3 domain of Streptococcus mutans adhesin P1 (recombinant C3 polypeptide, 175-residue construct) (Streptococcus mutans)
T1 chain: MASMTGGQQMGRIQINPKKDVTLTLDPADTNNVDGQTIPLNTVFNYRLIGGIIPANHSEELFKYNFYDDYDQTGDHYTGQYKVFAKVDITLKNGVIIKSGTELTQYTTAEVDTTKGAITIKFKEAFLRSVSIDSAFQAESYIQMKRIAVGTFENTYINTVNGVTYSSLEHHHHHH
Assay: ITC

B1: A3VP1 (386–864) polypeptide of Streptococcus mutans adhesin P1 (domain or fragment)
chain: AANEADYQAKLTAYQTELARVQKANADAKAAYEAAVAANNAANAALTAENTAIKKRNADAKADYEAKLAKYQADLAKYQKDLADYPVKLKAYEDEQASIKAALAELEKHKNEDGNLTEPSAQNLVYDLEPNANLSLTTDGKFLKASAVDDAFSKSTSKAKYDQKILQLDDLDITNLEQSNDVASSMELYGNFGDKAGWSTTVSNNSQVKWGSVLLERGQSATATYTNLQNSYYNGKKISKIVYKYTVDPKSKFQGQKVWLGIFTDPTLGVFASAYTGQVEKNTSIFIKNEFTFYDEDGKPINFDNALLSVASLNRENNSIEMAKDYTGKFVKISGSSIGEKNGMIYATDTLNFRQGQGGARWTMYTRASEPGSGWDSSDAPNSWYGAGAIRMSGPNNSVTLGAISSTLVVPADPTMAIETGKKPNIWYSLNGKIRAVNVPKVTKEKPTPPVKPTAPTKPTYETEKPLKPAPVAPNYEKE
**Q.** How did the “KD of the site with intermediate binding constant (two-site fit)” value turn out when B1 was run?
**A.** 35.2 ± 7 µM
